Data from the DeepSol protein solubility set.

Experiment: soluble on expression in E. coli; label from the status in PepcDB or PDB records

Sequence	soluble on expression in E. coli
MHPFYTRAATMIGEIAAAVSFISKFLRTKGLTSERQLQTFSQSLQELLAEHYKHHWFPEKPCKGSGYRCIRINHKMDPLIGQAAQRIGLSSQELFRLLPSELTLWVDPYEVSYRIGEDGSICVLYEASPAGGSTQNSTNVQMVDSRISCKEELLLGRTSPSKNYNMMTVSG	soluble
MSLSQTTNIKEQTDTGLAPPAPAITTNSAAIEEQANSSIRKLYHTLNTMPNTSMADRISQISAYFKGTKYILGSLGEGPNARYDQFPRYRVDGFDCDTYVNTVLSLALANSLESFQECLKHTRYKNGKRSYINRNHFTSIDWNNYNQKRGLLKDITFSIRNEKKQPVALYANALINKPQWYNHKTIDTIRLQKQDKNEQEKRLVELKAKGKTLETSLSNVPYIPFTALFSENKPNLHLFSQIPNGAVIEIIRPNWDLRQQIGTELDISHLGFAIWINNELFFRQASSQYGKVVDVSLIDYLDKARSSPTIKGINIQVVLPEKPVSNGCQLFDIREGHHHHHH	soluble
MRNVFCIGELLIDFVCRNTNVSLVNGSNFEKKAGGAPANVAAAITKLGGHATFMGQVGNDPFGEFLEQTLQHAHVDTSMLIKDKQTTLAFVSIDQNGERDFTFMRGADGEYHFNSIDLSKIKTNDLIHFGSATALLSSPLKDTYFQLLQHARESGQFISFDPNYRNALITNTEQFIQDCLTFIKHAHFVKVSQEEAIMLSKESDLQQSALKLLNHGAKAVAITLGKDGTLLATKDKQTIVPSISIQQVDTTGAGDAFVGAMLYQIAKSEQMFLHNFEGLTTFISFANKVGALTCTNYGAISSLPSLTDVKAYE	not soluble
MGSDKIHHHHHHMTETERLALASLLYQLADDDFLYAYRGSEWLGLAPHIEEDVASSSIAQDSMGHAAMYYQLLEEIGEGKADALAHVRLAHERKNSVLVERVNGPGYYMENPEYDWAYAVVRNYCYTLAKKVRIDSLKKSSYTPLAALAVKVNMELYYHLLHWQTWFTQLYQSTETARQKMDAALERVLADFGDLFDYGEASELIDEMRLIEGQGILLDRWYQALTPVLVDLNVTLPEMKMTYNGRNGEHSPDLNDALSTLGEVYLLDQSAVW	not soluble
AHHHHHHGSLVVKDLNVEYDNVKVLKGISFALNSGEKAIILGTNGAGKTTLLKSLLGLIPIKSGKIQICGKPYEKVVGEKKVSTNLESVYKLVYSIKVSELIDLYCDLKEIPSQQILNFIKEMKLEHILEKKFYNLSSGEKKCLTNLLAFFTDSKLILLDEPFEGLDPWRTNKTVEILNSLKSSIIMTTHRLDILSKFSTFKVYFLFNGHLYGPIRSASDLVNCYVTFSDIEEGESDIVLRIQGDKKNVILTRRPIGQKISDYASIDEIYRVMLE	not soluble
MGSDKIHHHHHHMKYILVTGGVISGIGKGVIASSVGTILKSCGLHVTSIKIDPYINIDAGTFSPYEHGEVFVLDDGGEVDLDLGNYERFLDIRLTKDNNLTTGKIYQYVINKERKGDYLGKTVQVVPHITDAIQEWVMRQALIPVDEDGLEPQVCVIELGGTVGDIESMPFIEAFRQFQFKVKRENFCNIHVSLVPQPSSTGEQKTKPTQNSVRELRGLGLSPDLVVCRCSNPLDTSVKEKISMFCHVEPEQVICVHDVSSIYRVPLLLEEQGVVDYFLRRLDLPIERQSRKMLMKWKEMADRYDRLLETCSIALVGKYTKFSDSYASVIKALEHSALAINHKLEIKYIDSTDLEPSTLQEEPVRYHEAWQKLCSAHGVLVPGGFGVRGTEGKIQAIAWARKQKKPFLGVCLGMQLAVVEFSRNVLGWQDANSTEFDPKTSHPVVIDMPEHNPGQMGGTMRLGKRRTLFQTKNSVMRKLYGDTDYLEERHRHRFEVNPVLKKCLEEQGLKFVGQDVEGERMEIVELEDHPFFVGVQYHPEFLSRPIKPSPPYFGLLLASVGRLPHYLQKGCRLSPRDTYSDRSGSSSPDSEITELKFPSISQD	not soluble
MSLTETILSVGIDLGTSTTQLILSELEIQNMASSFTVPRIVISDKRIIFRSEILFTPILADNLIDVEAIRDFVTKEYANAGIKKEEIGMGAVIITGETARKDNASNVLDAMSGFAGDFVVATAGPDLESIIAGKGAGAHTYAKENNTSVVNLDIGGGTTNLSLFDRGELIDTACLDIGGRLIKVDRETRKITYIAPKIQALIEKRGYPVKLGETTSPENLQPVLGEMVELLKNSVGLGAPNDFYKTIITNKGLKFLTEIECISFSGGVADCISTGALSDPFRYGDIGLLLGKAIAESSLMTEKKYIESVETIRATVVGAGSHTAEISGSTITYTEKIFPVKNIPILKLAKQEEDENMAEVIKEKLSWFKIENEMEHIALAIEGENSPSFQQVTEYAKAICEGMKEPIALGHPLIIITWHDMAKALGQSIFGHLPAGHPLICLDSVKVDNGDYIDIGKPVADGKVLPVVVKTLVFNEGHHHHHH	soluble
MGSSHHHHHHGGTGENLYFQGGSGSSSSSSLPAAASLPATHATPPGALSSSVVSSSAPMCTHLPLPPPPPQPQEQQANKRSLRNDTHAGQMLREQQQMMEQLMSTGLVQAADLLEFGFSAAELRAAGLHLPPPHHRAGEQTKGGLEAAQAERMADAHGEDSRRRGVPRKRAWCDDAAQARPQKNERVAPSPVVSGAAATTLSAAETTREPQTVAKSVATPALLSEETRARSLHAAKLVEQTQSLRRHRGDQDCARWLCYDDTDDEEVSSTASTGTSSGEATAALASMARAAETLPKARCNTALAFSGLDVAVVREIAQRLQDESGHDASVESRRTREYVESRENGNTPYM	not soluble
MGSDKIHHHHHHMMGMKETVSNIVTSQAEKGGVKHVYYVACGGSYAAFYPAKAFLEKEAKALTVGLYNSGEFINNPPVALGENAVVVVASHKGNTPETIKAAEIARQHGAPVIGLTWIMDSPLVAHCDYVETYTFGDGKDIAGEKTMKGLLSAVELLQQTEGYAHYDDFQDGVSKINRIVWRACEQVAERAQAFAQEYKDDKVIYTVASGAGYGAAYLQSICIFMEMQWIHSACIHSGEFFHGPFEITDANTPFFFQFSEGNTRAVDERALNFLKKYGRRIEVVDAKELGLSTIKTTVIDYFNHSLFNNVYPVYNRALAEARQHPLTTRRYMWKVEY	not soluble
MSLKFIVIKIGGSTLSDMHPSIINNIKHLRSNNIYPIIVHGGGPFINEALSNQQIEPHFVNGLRVTDKATMTITKHTLIADVNTALVAQFNQHQCSAIGLCGLDAQLFEITSFDQQYGYVGVPTALNKDALQYLCTKFVPIINSIGFNNHDGEFYNINADTLAYFIASSLKAPIYVLSNIAGVLINDVVIPQLPLVDIHQYIEHGDIYGGMIPKVLDAKNAIENGCPKVIIASGNKPNIIESIYNNDFVGTTILNSEGHHHHHH	soluble
GKPSWLGGGSTQPAQTIPWGIERVKAPSVWSITDGSVSVIQVAVLDTGVDYDHPDLAANIAWCVSTLRGKVSTKLRDCADQNGHGTHVIGTIAALNNDIGVVGVAPGVQIYSVRVLDARGSGSYSDIAIGIEQAILGPDGVADKDGDGIIAGDPDDDAAEVISMSLGGPADDSYLYDMIIQAYNAGIVIVAASGNEGAPSPSYPAAYPEVIAVGAIDSNDNIASFSNRQPEVSAPGVDILSTYPDDSYETLMGTAMATPHVSGVVALIQAAYYQKYGKILPVGTFDDISKNTVRGILHITADDLGPTGWDADYGYGVVRAALAVQAALG	soluble
GGVDRWPEYYPETGRDIWIDSVMRQEYLWYRDMPSPAAPDYFQKPEAFLKKAVASMDNGFSKIDSLLDEPIPSYGFDYTLYKVLDNDTAYNALISYVVPGSPAEEAGLQRGHWIMMMNGDYITKKVESELLQGSTRQLQIGVYKEVVGEDGEVTGGVVPIGETTMPASRSLVDKPVHRFEIIPWNGKKVGYLMYNEFKAGPTTDSQAYNDDLRRAFRDFQTGGVNEFVLDLRYNTGGSLDCAQLLCTMLAPADKMNQLLALLRYSDKRVEANQDLTFNPELIQSGANLNLSTVYVLTTNATRGAAEMVINCLNPYMKVVLIGTKTAGEYVATKPFVHPTDRFILNLVVCNVYNAEEKSDYATGFKPTYEYNEDSYLSTYLPFGNTNETLLNAALKIMSGITDK	soluble
MGSDKIHHHHHHMTAGRIRIDEVIKDGEKIIAVSRTSPFYPDGKGGQLGDRGKIGPANVLKVKEKNGYILHYLDAHLEPGDYECEIDPARRKDIACQHTAQHILSAAFLKVADLETVSFHMGERVSTIDLNAPFVLEDVLEEAEDLANEVVRSCERVEILEIEKEEAEKMNLRKLPNVEGKVRVVKIGDFDVTACGGFHVENTGEIGLIKIVDTEKVKKVLTRIYFTAGDRALKDYREKDKLLKSLSRVLTTSTKELLKRAENLLEEVKEKSAKLDKLSEKYAEILSKVAEPEKVGKYYLYHFSGTPEEMKYLPKFLADRKDTIVLLEHPDRIEIVSNWIDCRKIFEKLKDQLNVEGGSSQKRAVITANSASRIVEKLREILKWF	not soluble
MRHFDIAITGAGLAGQIAAIALARAGRHVALIAPSSEKKDQRTTALMDQSIRFMDRLGLWSRIAPSAARLSTMQIIDGTDRLLRAPTVQFRSSEIGLDAFGWNIPNEALLGVLSEAVEQEHNITRLDTTAETIDIGNDRISVTIADGEVLSADFLIGADGRKSMVREAAGIGVKSWSYPQTAVVLNFSHSRPHGNVSTEFHTPTGPFTQVPLPDDRSSLVWVVTPQQAEELTALPLETLSLKVEERMQSMLGAVTVENSVQAWPLSSMTAHRFGKGRVALIGEAAHGFPPIGAQGLNLSLRDIIALTELLGAVSDRPIAADAGSSFDRKRRADVYSRTLSVDLLNRSLLSDFLPVQMARAAGLHVLSGIGTLRSMVMREGIEPGRGLKALPSLLFGSFKKAGLEHHHHHH	soluble
MGSDKIHHHHHHLAVLRYTVTNTGQLSVSGSWSASVKHPLIAVVFSSGRPDAPTLGKILKQLKKRYGIKNFNAVGHSAGSAAWANWAVTPDKQGMPQLRRLITIAGPFNGFPGMPGMNGGQHITLAKDGRPNVMSDRYKPLYDNRRYFPKTAAVLNLFGNLGKGTDGRVPVNSARSLRYVVAGRAKSYTEREITNSKAQHSQLHEHNPLVNRYLYEFLNNGKITN	not soluble
MNLDLQKVLPAEAFETEQNEGDYIGKDGLLYCGVCRTKKQTRLPASDFTGGREIIVPCICKCKVEENKRKEEEEKKRQEMQRLERLKASSLMDAKLKAARLDGYQVDGDNQKIYNLAGNYVKRFDEMYEKRQGLLFWGTVGTGKSYTAACIANELLNQMIPVVMTSFVKILQNIQGNPDEEERIMAGLNAAKLLIIDDLGAERSTDYALEKVYNIIDSRYLSGKPLILTTNMTLKDMQESEDIRYRRIYDRIFEMCFPVRFAGRSWREKAASKRFDAMKNLMEE	not soluble
MGNGLAKCLIDGDTETFWHAKWQGGSDPLPYDIVIDMKQNIQIAQVELLPRGRGSNNPIKVVEFAASEDNVNWTPIGRFGFTNQDAALEYYVKSIKARYIRLTIPDDGGNSTVAAIRELDVKGTIINLEHHHHHH	not soluble
MHRHVVTKVLPYTPDQLFELVGDVDAYPKFVPWITGMRTWNGRVDGAVSTVDAEAQVGFSFLREKFATRKRRDKDARSIDVSLLYGPFKRLNNGWRFMPEGDATRVEFVIEFAFKSALLDAMLAANVDRAAGKLIACFEARAQQLHGALEHHHHHH	soluble
MENLASPPDISFVIAAYNAADTIEAAVQSALDQRGVTLEVIVVDDRSADDTITFVEAIAAIDPRVRLLALEENRGPGGARNAGIEAATGRWIAVLDSDDVIRPERSACMMCRAEAANAAVAVDNLDVVYTDGRPMETMFPEEFLEERAVLTLEDFISSNILFRSTFNFGYMKPMFRRDFLNNEGLRFREDIRIGEDYILLASALAAGGLCVIEPKPGYIYNIREGSISRVLELHHVEAMMRADQEFLSHYTLLPAAMDAQQARARSLQLAHNFLTLVENIKRRSVLGALKTTIRDPAVLGHLRMPIAVRLRRLRDAMFAPAAKIQGLEHHHHHH	soluble
GSMAGGVDGPIGIPFPDHSSDILSGLNEQRTQGLLCDVVILVEGREFPTHRSVLAACSQYFKKLFTSGAVVDQQNVYEIDFVSAEALTALMDFAYTATLTVSTANVGDILSAARLLEIPAVSHVCADLLDRQI	soluble
